From article doi:10.1101/638080

Biological target: Chloride Intracellular Channel 1 (CLIC1), human, with N-terminal twin strep tag (human) (UniProt O00299)
Assay: mass photometry

Chloride Intracellular Channel 1 (CLIC1), human, with N-terminal twin strep tag (from UniProt O00299 1-241) (natural protein)
stoichiometry N: 6
